The numbers were not newly measured in publication PMC12720343, which cites them from elsewhere.

pKd: −log10 of the molar value.

As usually defined, the pKd is the negative decadic logarithm of the Kd, by convention in mol/L.

For this data set, the target named is SpoIIQ extracytoplasmic fragment (Bacillus subtilis) (UniProt P71044).
Chain of UniProt P71044 (P71044 43-283): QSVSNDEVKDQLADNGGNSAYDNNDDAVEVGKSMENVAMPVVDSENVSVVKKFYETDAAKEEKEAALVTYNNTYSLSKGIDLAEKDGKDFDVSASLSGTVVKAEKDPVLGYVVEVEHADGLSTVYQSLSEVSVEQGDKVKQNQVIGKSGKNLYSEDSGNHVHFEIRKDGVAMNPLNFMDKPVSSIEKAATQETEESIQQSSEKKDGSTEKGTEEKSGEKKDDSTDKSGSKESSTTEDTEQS

“SpoIIIAH extracytoplasmic fragment (from UniProt P49785)”: the negative-log Kd (pKd) is 6.00.
